Test results as given in publication PMC7157769.

Columns and labels:
Assay in all cases: ELISA; affinity-based ELISA; 5 ug/ml of each dockerin-containing enzyme immobilised on a MaxiSorp plate; CBM-Coh modules applied at 0.01 ng/ml to 100 ug/ml (Fig. S4: 1 or 10 ug/ml); detected with rabbit anti-CBD
[1] = target: GH9B (GH9B-CBM3c-Doc), dockerin-containing glycoside hydrolase of C. saccharoperbutylacetonicum (Clostridium saccharoperbutylacetonicum N1-4 (HMT))
[2] = target: GH44A (GH44A-Doc), dockerin-containing glycoside hydrolase of C. saccharoperbutylacetonicum (Clostridium saccharoperbutylacetonicum N1-4 (HMT))
[3] = target: GH74A (GH74A-Doc), dockerin-containing glycoside hydrolase of C. saccharoperbutylacetonicum (Clostridium saccharoperbutylacetonicum N1-4 (HMT))
[4] = target: GH48A (GH48A-Doc), dockerin-containing glycoside hydrolase of C. saccharoperbutylacetonicum (Clostridium saccharoperbutylacetonicum N1-4 (HMT))
[5] = target: GH5B (GH5B-Doc), dockerin-containing glycoside hydrolase of C. saccharoperbutylacetonicum (Clostridium saccharoperbutylacetonicum N1-4 (HMT))

Row | Substance | pEC50 [1] | pEC50 [2] | pEC50 [3] | pEC50 [4] | pEC50 [5]
1 | X2-Coh2 of the scaffoldin ScaA, fused to a CBM cassette (domain or fragment) | 2.4 | 4 | 4 | – | –
2 | X2-Coh1 of the scaffoldin ScaA, fused to a CBM cassette (domain or fragment) | 0.7 | 4 | – | 3 | 2.5
